Data from paper PMC10082787, “The IgG4 hinge with CD28 transmembrane domain improves VHH-based CAR T cells targeting a membrane-distal epitope of GPC1 in pancreatic cancer” (Nature Communications, 2023).

B4: recombinant human GPC1-hFc protein (Fc fusion)
chain: DPASKSRSCGEVRQIYGAKGFSLSDVPQAEISGEHLRICPQGYTCCTSEMEENLANRSHAELETALRDSSRVLQAMLATQLRSFDDHFQHLLNDSERTLQATFPGAFGELYTQNARAFRDLYSELRLYYRGANLHLEETLAEFWARLLERLFKQLHPQLLLPDDYLDCLGKQAEALRPFGEAPRELRLRATRAFVAARSFVQGLGVASDVVRKVAQVPLGPECSRAVMKLVYCAHCLGVPGARPCPDYCRNVLKGCLANQADLDAEWRNLLDSMVLITDKFWGTSGVESVIGSVHTWLAEAINALQDNRDTLTAKVIQGCGNPKVNPQGPGPEEKRRRGKLAPRERPPSGTLEKLVSEAKAQLRDVQDFWISLPGTLCSEKMALSTASDDRCWNGMARGRYLPEVMGDGLANQINNPEVEVDITKPDMTIRQQIMQLKIMTNRLRSAYNGNDVDFQDASDDGSGSGSGDGCLDDLCSRKVSRKSSSSRTPLTHALPGLSEQEGQKTS
notes: glypican-1, human, fused to human Fc

Experiments:
[1] = biological target: T1, GPC1 peptide 53 (Homo sapiens, UniProt P35052); test: ELISA; 53 overlapping 18-mer GPC1 peptides coated at 5 μg/ml in PBS overnight; 1 μg/ml of HM2 or D4 added; conditions: both partners purified
T1 construct: peptide no; 53 of 53 overlapping GPC1 peptides, 18 amino acids long, 9 overlapped with the adjacent peptide; source: synthetic peptide (Genscript)
T1 chain: DGCLDDLCSRKVSRKSSS

[2] = biological target: T2, His-tagged GPC1 protein (Homo sapiens, UniProt P35052); test: BLI; Octet RED96; His-tagged GPC1 immobilised on Ni-NTA biosensor, HM2 in solution; association 600 s, dissociation 1800 s; conditions: both partners purified
T2 construct: glypican-1, human, His-tagged protein immobilised on the Ni-NTA biosensor; also called human GPC1
T2 sequence (P35052 whole entry, looked up): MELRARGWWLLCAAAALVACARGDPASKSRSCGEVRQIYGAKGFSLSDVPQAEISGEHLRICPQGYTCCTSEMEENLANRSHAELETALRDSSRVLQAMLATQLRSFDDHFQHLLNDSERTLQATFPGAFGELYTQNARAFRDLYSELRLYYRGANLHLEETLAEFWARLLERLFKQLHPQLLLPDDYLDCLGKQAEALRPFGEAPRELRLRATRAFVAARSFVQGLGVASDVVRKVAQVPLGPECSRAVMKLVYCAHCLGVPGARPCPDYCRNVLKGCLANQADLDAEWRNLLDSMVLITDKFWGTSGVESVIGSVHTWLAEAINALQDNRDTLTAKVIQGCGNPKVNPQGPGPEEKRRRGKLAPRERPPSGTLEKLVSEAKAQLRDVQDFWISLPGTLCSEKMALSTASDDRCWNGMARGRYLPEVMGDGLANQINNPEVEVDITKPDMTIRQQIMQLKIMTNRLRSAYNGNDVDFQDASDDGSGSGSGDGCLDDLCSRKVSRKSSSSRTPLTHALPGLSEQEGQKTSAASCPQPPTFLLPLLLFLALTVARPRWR

[3] = biological target: T3, human glypican-3 (GPC3), recombinant protein (Homo sapiens, UniProt P51654); test: ELISA; plates coated with human GPC1 through GPC6; mouse hybridoma supernatant with 1 μg/ml of each mAb; detected with goat anti-mouse IgG-HRP; conditions: one partner purified
T3 construct: glypican-3, human, recombinant protein coated on ELISA plates; source: bought: R&D Systems
T3 sequence (P51654 25-580): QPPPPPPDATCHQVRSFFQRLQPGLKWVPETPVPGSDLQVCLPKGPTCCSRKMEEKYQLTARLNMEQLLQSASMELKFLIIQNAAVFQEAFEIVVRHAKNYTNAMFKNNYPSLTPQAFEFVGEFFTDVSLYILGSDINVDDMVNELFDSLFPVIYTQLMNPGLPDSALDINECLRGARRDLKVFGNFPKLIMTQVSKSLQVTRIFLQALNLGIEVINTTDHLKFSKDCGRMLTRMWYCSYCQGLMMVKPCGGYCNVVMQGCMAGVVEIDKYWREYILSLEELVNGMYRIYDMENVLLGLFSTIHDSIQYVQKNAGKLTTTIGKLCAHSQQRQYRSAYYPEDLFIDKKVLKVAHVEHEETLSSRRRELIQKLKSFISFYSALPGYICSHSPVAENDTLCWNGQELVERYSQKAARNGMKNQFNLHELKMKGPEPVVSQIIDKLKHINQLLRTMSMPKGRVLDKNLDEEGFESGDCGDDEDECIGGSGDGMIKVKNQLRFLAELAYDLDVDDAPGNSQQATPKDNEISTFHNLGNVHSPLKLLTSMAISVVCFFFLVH

[4] = biological target: T4, human glypican-6 (GPC6), recombinant protein (Homo sapiens (Human)., UniProt Q9Y625); test: as above; conditions: one partner purified
T4 construct: glypican-6, human, recombinant protein coated on ELISA plates; source: bought: R&D Systems
T4 sequence (Q9Y625 24-529): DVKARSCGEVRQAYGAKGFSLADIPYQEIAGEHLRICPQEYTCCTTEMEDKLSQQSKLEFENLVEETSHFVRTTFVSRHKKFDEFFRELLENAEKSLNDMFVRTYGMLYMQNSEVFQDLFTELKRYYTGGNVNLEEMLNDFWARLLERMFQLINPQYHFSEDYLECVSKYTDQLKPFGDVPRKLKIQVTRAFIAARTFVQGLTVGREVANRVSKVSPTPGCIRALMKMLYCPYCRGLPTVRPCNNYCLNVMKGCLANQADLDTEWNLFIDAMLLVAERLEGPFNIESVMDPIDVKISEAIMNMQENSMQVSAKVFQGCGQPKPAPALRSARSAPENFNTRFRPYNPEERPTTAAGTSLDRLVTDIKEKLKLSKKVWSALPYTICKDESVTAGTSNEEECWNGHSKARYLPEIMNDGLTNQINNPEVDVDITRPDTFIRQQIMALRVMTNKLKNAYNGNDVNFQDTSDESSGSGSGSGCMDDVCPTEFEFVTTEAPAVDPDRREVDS

[5] = biological target: T5, human glypican-2 (GPC2), recombinant protein (Homo sapiens (Human)., UniProt Q8N158); test: as above; conditions: one partner purified
T5 construct: glypican-2, human, recombinant protein coated on ELISA plates; source: bought: R&D Systems
T5 sequence (Q8N158 24-554): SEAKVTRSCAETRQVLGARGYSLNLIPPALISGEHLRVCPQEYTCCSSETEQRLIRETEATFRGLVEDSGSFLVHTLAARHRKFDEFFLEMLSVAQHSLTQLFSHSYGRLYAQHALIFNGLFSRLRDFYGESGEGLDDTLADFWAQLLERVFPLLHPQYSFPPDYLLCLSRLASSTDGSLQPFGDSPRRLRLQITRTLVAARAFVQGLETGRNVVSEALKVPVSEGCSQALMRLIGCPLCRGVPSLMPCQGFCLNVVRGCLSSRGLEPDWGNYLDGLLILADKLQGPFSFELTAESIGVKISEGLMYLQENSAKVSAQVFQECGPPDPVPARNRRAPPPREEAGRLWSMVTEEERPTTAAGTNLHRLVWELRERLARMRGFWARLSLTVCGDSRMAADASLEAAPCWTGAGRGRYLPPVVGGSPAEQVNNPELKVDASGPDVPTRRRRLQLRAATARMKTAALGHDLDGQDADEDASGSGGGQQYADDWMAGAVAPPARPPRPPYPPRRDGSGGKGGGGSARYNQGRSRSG

[6] = biological target: T6, human glypican-5 (GPC5), recombinant protein (Homo sapiens, UniProt P78333); test: as above; conditions: one partner purified
T6 construct: glypican-5, human, recombinant protein coated on ELISA plates; source: bought: R&D Systems
T6 sequence (P78333 25-572): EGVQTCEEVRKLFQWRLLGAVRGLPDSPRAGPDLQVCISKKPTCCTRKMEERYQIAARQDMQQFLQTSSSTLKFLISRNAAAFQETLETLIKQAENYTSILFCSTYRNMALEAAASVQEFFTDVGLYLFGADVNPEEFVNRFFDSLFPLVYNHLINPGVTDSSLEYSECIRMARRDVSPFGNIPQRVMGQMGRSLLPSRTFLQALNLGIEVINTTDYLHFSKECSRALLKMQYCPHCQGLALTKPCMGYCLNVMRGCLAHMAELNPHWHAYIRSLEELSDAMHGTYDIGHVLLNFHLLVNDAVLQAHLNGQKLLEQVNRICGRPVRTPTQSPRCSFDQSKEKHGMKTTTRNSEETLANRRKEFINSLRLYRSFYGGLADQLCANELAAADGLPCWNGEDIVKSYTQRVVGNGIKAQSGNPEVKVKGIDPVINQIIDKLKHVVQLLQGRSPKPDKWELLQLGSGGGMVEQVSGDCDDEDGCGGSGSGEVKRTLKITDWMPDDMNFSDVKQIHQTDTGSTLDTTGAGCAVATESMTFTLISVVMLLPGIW

[7] = biological target: T7, human glypican-4 (GPC4), recombinant protein (Homo sapiens, UniProt O75487); test: as above; conditions: one partner purified
T7 construct: glypican-4, human, recombinant protein coated on ELISA plates; source: bought: R&D Systems
T7 sequence (O75487 19-529): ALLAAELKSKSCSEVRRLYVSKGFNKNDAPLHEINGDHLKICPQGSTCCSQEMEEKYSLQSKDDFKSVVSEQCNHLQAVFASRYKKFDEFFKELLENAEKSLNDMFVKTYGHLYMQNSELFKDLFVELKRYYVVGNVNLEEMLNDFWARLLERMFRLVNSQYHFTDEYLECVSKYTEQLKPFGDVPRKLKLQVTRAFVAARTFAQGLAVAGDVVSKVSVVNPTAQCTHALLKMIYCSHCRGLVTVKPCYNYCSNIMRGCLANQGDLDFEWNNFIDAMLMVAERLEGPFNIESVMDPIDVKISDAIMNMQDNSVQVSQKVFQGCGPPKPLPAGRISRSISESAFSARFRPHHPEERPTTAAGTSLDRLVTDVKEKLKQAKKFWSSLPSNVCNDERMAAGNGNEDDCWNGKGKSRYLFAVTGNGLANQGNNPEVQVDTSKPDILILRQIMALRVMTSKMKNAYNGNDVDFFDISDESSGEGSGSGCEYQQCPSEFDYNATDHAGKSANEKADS

[8] = biological target: T3, human glypican-3 (GPC3), recombinant …; test: ELISA; D4 nanobody at 1 μg/ml on human GPC1 through GPC6 and mouse GPC1 proteins; detected with anti-FLAG-HRP; the legend calls it monoclonal phage ELISA; conditions: both partners purified
[9] = biological target: T4, human glypican-6 (GPC6), recombinant …; test: as above; conditions: both partners purified
[10] = biological target: T5, human glypican-2 (GPC2), recombinant …; test: as above; conditions: both partners purified
[11] = biological target: T6, human glypican-5 (GPC5), recombinant …; test: as above; conditions: both partners purified
[12] = biological target: T8, mouse glypican-1 (GPC1) protein (Mus musculus (Mouse)., UniProt Q9QZF2); test: as above; conditions: both partners purified
T8 construct: glypican-1, mouse, protein used in the ELISA of D4; also called mouse GPC1; murine GPC1

[13] = biological target: T7, human glypican-4 (GPC4), recombinant …; test: as above; conditions: both partners purified
[14] = biological target: B4; test: BLI; Octet RED96; His-tagged D4 loaded on Ni-NTA biosensor, serially diluted human GPC1-hFc in solution; conditions: both partners purified
[15] = biological target: T9, GPC1 peptide 15 (Homo sapiens, UniProt P35052); test: ELISA; 53 overlapping 18-mer GPC1 peptides coated at 5 μg/ml in PBS overnight; 1 μg/ml of HM2 or D4 added; conditions: both partners purified
T9 construct: peptide no; 15 of 53 overlapping GPC1 peptides, 18 amino acids long, 9 overlapped with the adjacent peptide; source: synthetic peptide (Genscript)
T9 chain: LYYRGANLHLEETLAEFW

[16] = biological target: T10, GPC1 peptide 14 (Homo sapiens, UniProt P35052); test: as above; conditions: both partners purified
T10 construct: peptide no; 14 of 53 overlapping GPC1 peptides, 18 amino acids long, 9 overlapped with the adjacent peptide; source: synthetic peptide (Genscript)
T10 chain: FRDLYSELRLYYRGANLH

[17] = biological target: D4-LR immunotoxin (Camelus dromedarius | Pseudomonas); test: negative stain EM; conditions: both partners purified
[18] = biological target: T11, D4-IgG4H-CD8TM CAR (Camelus dromedarius | human | ); test: flow cytometry on cells; CAR T cells stained with GPC1-hFc at 5 μg/ml and goat anti-human IgG-PE; conditions: one partner purified
T11 construct: CD8 transmembrane region (CD8TM); 4-1BB costimulatory domain; intracellular CD3ζ; Dimer by non-reducing western blot; also called pMH382; source: human T cells from PBMCs, lentivirally transduced; on cells and in lysate

[19] = biological target: T12, D4-IgG4H-CD28TM CAR (Camelus dromedarius | human | ); test: as above; conditions: one partner purified
T12 construct: CD28 transmembrane domain (CD28TM); 4-1BB costimulatory domain; intracellular CD3ζ; Dimer by non-reducing western blot; also called D4-IgG4H only CAR; D4-IgG4H CAR; source: human T cells from PBMCs, lentivirally transduced; on cells and in lysate

[20] = biological target: T13, D4-CD8H-CD28TM CAR (Camelus dromedarius | ); test: as above; conditions: one partner purified
T13 construct: CD8 hinge (CD8H), 45 amino acids; CD28 transmembrane domain (CD28TM); 4-1BB costimulatory domain; intracellular CD3ζ; also called pMH402; source: human T cells from PBMCs, lentivirally transduced; on cells and in lysate

[21] = biological target: T14, D4-CD8H-CD8TM CAR (Camelus dromedarius | ); test: as above; conditions: one partner purified
T14 construct: CD8 hinge (CD8H), 45 amino acids; CD8 transmembrane region (CD8TM); 4-1BB costimulatory domain; intracellular CD3ζ; also called D4 CAR; pMH305; source: human T cells from PBMCs, lentivirally transduced; on cells and in lysate

[22] = biological target: B4; test: as above; conditions: one partner purified

B1: HM2 mouse monoclonal antibody (antibody, V domains shown)
VH: EVQLQQSGAELVRPGASVKLSCTASGFNIKDDYMHWVKQRPEQGLEWIGWIDPENGDTEYASKFQGKATITADTSSNTAYLQLSSLTSEDTAVYYCTRSSVGYWGQGTTLTVSS
VL: DVVMTQTPLSLPVSLGDQASISCRSSQSLVHSNGNTYLHWYLQKPGQSPKLLIYKVSNRFSGVPDRFSGSGSGTYFTLKISRVEAEDLGVYFCSQRTHVPYTFGGGTKLEIK
notes: heavy chain of mouse mAb HM2; light chain of mouse mAb HM2; Raised by immunising mice with the C-lobe region of GPC1; also called HM2 mAb; HM2 clone; source: mouse hybridoma; in supernatant and purified
binding result [1]: binds | Kd [2]: 0.4 nM | binding result [3]: no binding (tested: 1 μg/ml) | binding result [4]: no binding (tested: 1 μg/ml) | binding result [5]: no binding (tested: 1 μg/ml) | binding result [6]: no binding (tested: 1 μg/ml) | binding result [7]: no binding (tested: 1 μg/ml)

B2: D4 dromedary camel VHH nanobody (VHH)
VHH: QVQLVESGGGLVQPGGSLRLSCVASGYSYSIGYMAWFRQAPGKERAWVASRYTGDGGAVFDDAVKGRFTTSQESAGNTFDLQMDSLKPEDTAMYYCAAKGPGFGRWEYWGRGTQVTVSS
notes: D4 VHH; His tag used to load the Ni-NTA biosensor; FLAG used for detection in ELISA and flow cytometry; also called D4 antibody; D4 VHH
binding result [8]: no binding (tested: 1 μg/ml) | binding result [9]: no binding (tested: 1 μg/ml) | binding result [10]: no binding (tested: 1 μg/ml) | binding result [11]: no binding (tested: 1 μg/ml) | binding result [12]: binds | binding result [13]: no binding (tested: 1 μg/ml) | Kd [14]: 0.7 nM | binding result [15]: binds | binding result [16]: binds

B3: GPC1 protein (negative stain EM) (natural protein)
chain: DPASKSRSCGEVRQIYGAKGFSLSDVPQAEISGEHLRICPQGYTCCTSEMEENLANRSHAELETALRDSSRVLQAMLATQLRSFDDHFQHLLNDSERTLQATFPGAFGELYTQNARAFRDLYSELRLYYRGANLHLEETLAEFWARLLERLFKQLHPQLLLPDDYLDCLGKQAEALRPFGEAPRELRLRATRAFVAARSFVQGLGVASDVVRKVAQVPLGPECSRAVMKLVYCAHCLGVPGARPCPDYCRNVLKGCLANQADLDAEWRNLLDSMVLITDKFWGTSGVESVIGSVHTWLAEAINALQDNRDTLTAKVIQGCGNPKVNPQGPGPEEKRRRGKLAPRERPPSGTLEKLVSEAKAQLRDVQDFWISLPGTLCSEKMALSTASDDRCWNGMARGRYLPEVMGDGLANQINNPEVEVDITKPDMTIRQQIMQLKIMTNRLRSAYNGNDVDFQDASDDGSGSGSGDGCLDDLCSRKVSRKSSSSRTPLTHALPGLSEQEGQKTS
notes: glypican-1 protein mixed 1:1 with HM2 Fab or D4-LR for negative stain EM; It may be the His-tagged or the hFc-fused protein of the other experiments
binding result [17]: binds

B4
binding result [18]: binds | binding result [19]: binds | binding result [20]: binds | binding result [21]: binds

B5: clone 1–12-IgG4H-CD28TM CAR (other)
VH: AVTLDESGGGLQTPGRALSLVCKASGFTFSRYAMYWVRQAPGKGLEFVAGIGNTGRYTGYGSAVKGRATISRDSGQSTVRLQLNNLRAEDTGNYYCAKSVSPYCCDAADIDAWGHGTEVIVST
VL: ALTQPASVSANPGETVKITCSGGSSGYAYGWYQQKSPGSAPVTLLYSNNNRPSDIPSRFSGSKSGSTATLTITGVQAEDEAVYFCGSVDSSSYAGIFGAGTTLTV
notes: scFv of the anti-GPC1 mAb clone 1–12; CD28 transmembrane domain (CD28TM); 4-1BB costimulatory domain; intracellular CD3ζ; also called clone 1–12 CAR; source: human T cells from PBMCs, lentivirally transduced; on cells
binding result [22]: binds
